# T1: cynomolgus monkey DR4 with death domain deletion on ExpiCHO-S cells (cynomolgus monkey (Macaca fascicularis))
# T1 construct: also called cynomolgus DR4
# T1 chain: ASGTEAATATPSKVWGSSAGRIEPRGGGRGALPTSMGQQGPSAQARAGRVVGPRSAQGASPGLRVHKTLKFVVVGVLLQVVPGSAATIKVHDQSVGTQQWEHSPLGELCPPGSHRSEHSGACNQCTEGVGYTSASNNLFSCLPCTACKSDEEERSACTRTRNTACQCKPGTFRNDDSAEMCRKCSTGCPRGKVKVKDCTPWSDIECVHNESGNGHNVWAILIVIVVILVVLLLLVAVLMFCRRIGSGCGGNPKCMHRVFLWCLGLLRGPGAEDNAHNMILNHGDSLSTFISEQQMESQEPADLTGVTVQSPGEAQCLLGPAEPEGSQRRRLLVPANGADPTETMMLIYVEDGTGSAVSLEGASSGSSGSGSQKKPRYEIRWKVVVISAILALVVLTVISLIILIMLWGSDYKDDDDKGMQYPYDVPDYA
# T2: His-tagged recombinant human FAPα (R&D Systems, Cat #3715-SE) (human, UniProt Q12884 26-760)
# T2 construct: not shown: His tag
# T2 sequence (looked up): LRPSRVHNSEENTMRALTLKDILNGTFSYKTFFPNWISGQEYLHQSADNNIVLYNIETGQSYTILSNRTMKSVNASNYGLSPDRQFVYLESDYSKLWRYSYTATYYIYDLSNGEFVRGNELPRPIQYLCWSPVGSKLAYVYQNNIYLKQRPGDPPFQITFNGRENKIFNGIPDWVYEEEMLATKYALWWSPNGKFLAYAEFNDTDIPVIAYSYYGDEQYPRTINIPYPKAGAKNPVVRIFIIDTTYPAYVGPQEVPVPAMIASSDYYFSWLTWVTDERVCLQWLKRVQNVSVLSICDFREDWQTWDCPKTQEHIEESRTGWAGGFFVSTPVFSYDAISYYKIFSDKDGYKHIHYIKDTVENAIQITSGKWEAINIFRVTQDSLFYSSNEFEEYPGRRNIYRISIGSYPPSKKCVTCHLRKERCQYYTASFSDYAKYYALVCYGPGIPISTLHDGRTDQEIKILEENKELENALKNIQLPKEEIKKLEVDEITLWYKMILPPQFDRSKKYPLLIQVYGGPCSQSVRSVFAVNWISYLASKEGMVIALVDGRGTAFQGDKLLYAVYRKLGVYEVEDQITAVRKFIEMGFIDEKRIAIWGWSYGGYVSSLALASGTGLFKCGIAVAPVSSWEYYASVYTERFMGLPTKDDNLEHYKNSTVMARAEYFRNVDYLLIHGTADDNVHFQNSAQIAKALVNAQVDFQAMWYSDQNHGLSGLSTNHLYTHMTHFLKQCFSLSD
# How the values were obtained:
# [1] = molecular target: T1, cynomolgus monkey DR4 with death domain …; assay: flow cytometry, ExpiCHO-S cells expressing cynomolgus monkey DR4, average ± SEM
# Method: Binding of BisG1-FAPα-FERL/DR4-FERR, BisG1-DR4-FEAL/b12-FEAR and IgG1-DR4-FERR to DR4 of various species commonly used for nonclinical toxicology studies was assessed by flow cytometry using ExpiCHO-S cells transiently expressing DR4 from different animal species. In contrast to other species, rodents only express one DR which has highest homology with human DR5. Therefore, ExpiCHO-S cells transiently expressing rat and mouse DR protein were used instead. All DR constructs lack the intracellular DD to avoid apoptosis of transfected cells upon DR(4) activation. IgG1-b12 was used as negative control.
# [2] = molecular target: T2, His-tagged recombinant human FAPα (R&D …); assay: BLI sandwich cross-block assay
# Method: Sandwich cross-block experiments were carried out while shaking at 1,000 RPM at 30° C. […] The activated AR2G sensors were loaded with 10 μg/mL of the first antibody in 10 mM Sodium Acetate pH 6.0 (ForteBio, cat. no. 18-1070) for 600 s and quenched with 1 M ethanolamine pH 8.5 (ForteBio, Cat. #18-1071) for 300 s. After a baseline measurement in Sample Diluent (30 s; FortéBio, Cat. #18-1048), the AR2G biosensors containing immobilized antibodies were loaded for 200 s with His-tagged recombinant human FAPα (R&D Systems, Cat #3715-SE, 100 nM in Sample Diluent) for 200 s. The theoretical molecular mass of His-tagged recombinant human FAPα protein based on the amino acid sequence (86 kDa) was used for calculations. The association (200 s) of a second antibody (5 μg/mL in Sample Diluent) was determined. Sensors were regenerated by exposure to 10 mM glycine pH 2.5 (Riedl-deHaen, Cat. #15527) for 5 s, followed by neutralization in Sample Diluent for 5 s; both steps were repeated twice. Subsequently, the sensors containing immobilized first antibody were used again, starting with the baseline step.
# Data were acquired using Data Acquisition Software v9 (ForteBio) and analyzed with Data Analysis HT Software v9 (ForteBio). The Y-axis was aligned to the start of the association step and Savitzky-Golay filtering was applied. […]
Binder,EC50 [1] [µg/mL],binding result [2]
"IgG1-DR4-FERR (antibody, V domains shown, Bivalent monoclonal IgG1 lambda) VH: QVQLQESGPGLVKPSGTLSLTCAVSGGSISSYSWWSWIRQPPGKGLEWIGELYHSGSTNYNPSLKSRVTISVDKSKNQFSLKLRSVTAADTAVYYCVRGVATIDYWGQGTLVTVSS VL: QSALTQPPSASGSPGQSVTISCTGTSSDVGGYNFVSWYQQDPGKAPKLLIYEVTKRPSGVPDRFSGSKSGNTASLTVSGLQAEDEADYYCSSYAGSNNVMFGGGTKLTVLG",1.84,
"IgG1-b12 (antibody, HIV gp120 antibody b12 with wild-type IgG1 Fc; also called IgG-b12) heavy: not shown light: EIVLTQSPGTLSLSPGERATFSCRSSHSIRSRRVAWYQHKPGQAPRLVIHGVSNRASGISDRFSGSGSGTDFTLTITRVEPEDFALYYCQVYGASSYTFGQGTKLERKRTVAAPSVFIFPPSDEQLKSGTASVVCLLNNFYPREAKVQWKVDNALQSGNSQESVTEQDSKDSTYSLSSTLTLSKADYEKHKVYACEVTHQGLSSPVTKSFNRGEC",,no binding
